Laboratory results from paper PMC4838378 (Nucleic Acids Research, 2016).
Like-named read-outs stand apart in the source and are kept apart here.

How the values were obtained:
[1] = molecular target: T1, HpDnaB replicative helicase (Helicobacter pylori, UniProt O25916 1-488); assay: pull-down
T1 sequence: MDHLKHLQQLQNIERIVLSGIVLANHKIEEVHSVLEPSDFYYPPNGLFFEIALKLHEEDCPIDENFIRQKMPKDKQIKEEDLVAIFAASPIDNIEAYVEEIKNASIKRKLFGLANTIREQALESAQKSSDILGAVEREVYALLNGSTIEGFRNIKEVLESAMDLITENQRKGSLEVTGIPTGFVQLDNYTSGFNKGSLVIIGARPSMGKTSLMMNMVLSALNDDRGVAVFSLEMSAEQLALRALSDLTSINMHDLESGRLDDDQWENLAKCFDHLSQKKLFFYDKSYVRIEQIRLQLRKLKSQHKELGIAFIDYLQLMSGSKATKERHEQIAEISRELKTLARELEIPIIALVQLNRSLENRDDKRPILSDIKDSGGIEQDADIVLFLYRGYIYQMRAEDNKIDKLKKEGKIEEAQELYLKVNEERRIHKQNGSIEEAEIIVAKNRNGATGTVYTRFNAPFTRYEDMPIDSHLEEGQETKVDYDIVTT

[2] = molecular target: T2, HpDnaB replicative helicase;Hp0897 (Helicobacter pylori;Helicobacter pylori …, UniProt O25916;O25557 1-488;1-208, |); assay: EMSA
T2 sequence 1: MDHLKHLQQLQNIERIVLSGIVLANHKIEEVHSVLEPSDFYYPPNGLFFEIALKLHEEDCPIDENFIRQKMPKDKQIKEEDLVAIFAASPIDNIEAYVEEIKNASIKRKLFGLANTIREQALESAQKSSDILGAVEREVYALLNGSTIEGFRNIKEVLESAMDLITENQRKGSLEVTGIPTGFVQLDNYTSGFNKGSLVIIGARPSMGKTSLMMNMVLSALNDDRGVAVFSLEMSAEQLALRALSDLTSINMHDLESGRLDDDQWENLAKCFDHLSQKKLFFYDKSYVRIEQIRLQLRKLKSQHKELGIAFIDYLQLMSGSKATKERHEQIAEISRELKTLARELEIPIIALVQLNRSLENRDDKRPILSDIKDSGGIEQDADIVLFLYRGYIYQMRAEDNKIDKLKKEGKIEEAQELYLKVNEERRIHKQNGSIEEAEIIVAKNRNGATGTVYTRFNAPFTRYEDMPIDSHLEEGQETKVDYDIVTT
T2 sequence 2: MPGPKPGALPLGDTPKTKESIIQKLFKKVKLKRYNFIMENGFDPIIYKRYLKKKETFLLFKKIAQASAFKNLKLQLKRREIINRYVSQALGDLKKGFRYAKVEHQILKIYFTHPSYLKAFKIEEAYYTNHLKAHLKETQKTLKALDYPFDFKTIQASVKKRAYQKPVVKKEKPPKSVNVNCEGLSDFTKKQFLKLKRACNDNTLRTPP

Hp0897 = molecular target: T3, Hp0897 (Helicobacter pylori 26695, UniProt O25557 1-208); assay: EMSA
T3 sequence: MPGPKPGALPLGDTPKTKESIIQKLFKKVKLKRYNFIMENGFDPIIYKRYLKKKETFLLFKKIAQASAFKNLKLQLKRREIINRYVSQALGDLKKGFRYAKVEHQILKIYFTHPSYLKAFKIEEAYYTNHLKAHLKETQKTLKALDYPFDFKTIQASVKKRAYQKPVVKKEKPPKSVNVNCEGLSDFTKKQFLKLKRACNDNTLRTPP

[3] = molecular target: T2, HpDnaB replicative helicase;Hp0897; assay: EMSA; remark: listed apart in the source
cross-linking = molecular target: the molecule itself; assay: cross-linking

B1: biotinylated 70-nt ssDNA-1 (ssDNA)
DNA: CTGCCACACACCACCAAAGCTAACTGACAGCAGAATCCAGATGGATCATTTAAAGCATTTGCAACAATTG
modifications: 5' biotin
- binding result [1]: binds

B2: 70NZ ssDNA-1 (ssDNA)
DNA: CTGCCACACACCACCAAAGCTAACTGACAGCAGAATCCAGATGGATCATTTAAAGCATTTGCAACAATTG
- binding result [2]: binds
- binding result (Hp0897): binds

B3: 70-nt forked DNA (ssDNA-1/ssDNA-2) (dsDNA)
DNA 1: CTGCCACACACCACCAAAGCTAACTGACAGCAGAATCCAGATGGATCATTTAAAGCATTTGCAACAATTG
DNA 2: CAATTGTTGCAAATGCTTTAAATGATCCATGACCTAAGACGACAGTCAATCGAACCACCACACACCGTC
- binding result [3]: binds

B4: His6-Hp0897 (natural protein, Helicobacter pylori strain 26695, UniProt O25557 1-208, looked up)
chain: MPGPKPGALPLGDTPKTKESIIQKLFKKVKLKRYNFIMENGFDPIIYKRYLKKKETFLLFKKIAQASAFKNLKLQLKRREIINRYVSQALGDLKKGFRYAKVEHQILKIYFTHPSYLKAFKIEEAYYTNHLKAHLKETQKTLKALDYPFDFKTIQASVKKRAYQKPVVKKEKPPKSVNVNCEGLSDFTKKQFLKLKRACNDNTLRTPP
- stoichiometry N (cross-linking): 2
